Assay results as given in the DeepSol protein solubility set.

Experiment: soluble on expression in E. coli; label from the status in PepcDB or PDB records

| Sequence | soluble on expression in E. coli |
| --- | --- |
| MKRRESSPLISTILGIRYGRCVMGNFSIVIPTYNERDNIVKLVEEINRIVPYNSRILIVDDNSPDGTALILQELNIHNLTVLIRHNERGLGSALRYGISKAIELESDFIVTMDADFSHNPKYLPEMMKIALNENCDLVIGSRYVIGGGIENWSLSRRIISKGANYLFKLVSHSPIMDNTSNYRIYSRRAALLALECDTTNGYEFQICSIFKIIRNNLKIKEYPIIFVDRKTGKSKLNLKEILNWFLYIIRLSLSFLEHHHHHH | not soluble |
| MKSERILVVKTEDFLKEFGEFEGFMRVNFEDFLNFLDQYGFFRERDEAEYDETTKQVIPYVVIMDGDRVLITKRTTKQSEKRLHNLYSLGIGGHVREGDGATPREAFLKGLEREVNEEVDVSLRELEFLGLINSSTTEVSRVHLGALFLGRGKFFSVKEKDLFEWELIKLEELEKFSGVMEGWSKISAAVLLNLFLTQN | not soluble |
| MKSGEKDYSVKEAMIFSQRIAQLSKALWKCVEKDWQQWIKPYDLNINEHHILTIAYHLKGASISEIAKFGVMHVSTAFNFSKKLEERGYLVFSKKEDDKRNTYIEITDKGEELLLRLMEEYDPENNSVFNGALALRNFYGKFPENIELIAILRNIYGQDFIDIFEKSLEDIEENFTESDQKLVKK | not soluble |
| MKSITQLENKKVLVLGLAKSGEAAARLLAKLGAIVTVNDGKAFEENPSAQSLLEEGIKVVCGGHPLELLDENFELMVKNPGIRYDNPMVARALEKEIPVWTEVELAYLVSEAPIIGITGSNGKTTTTTMIADVLNHGGKSGVLSGNIGFPASEVAQSVTNQDTLVMELSSFQLMGIESFHPHIAVITNLMPTHIDYHGSFEEYVAAKWNIQNEMTSDDFIILNFNQDLAKELATQTNAQVVPFSTVEKVDGAYLENGGLYFKGELLMHADELGVPGSHNVENALATIAVAKLSGVSNQAIKETLSSFGGVKHRLQFVDTIDDVKFYNDSKSTNILATQKALSGFDNSKVILIAGGLDRGNEFDELIPDITGLKKMVILGESAPRVKRAADKAGVTYLDAKDVADATRIAFEQASAGDVVLLSPANASWDMYKNFEVRGDEFITTVERLKG | not soluble |
| MKSKLKLHGFNNLTKTLSFNIYDICYAETPQDQQAYVEYINSVYDAERLTRILTDVVDIIGANILNIARQDYDPQGASVTILISEQPVTPTESQIEESPGPLPETILAHLDKSHITVHTYPEIHPVDGIATFRVDIDVSTCGVISPLKALNYLIHKFESDIVTVDYRVRGFTRDVEGKKHFIDHEINSIQNYLSEDTRNGYQMTDVNVYQENLFHTKMLLKQFELDNYLFGDATSNLSAEQREQVTAKVKHEMLEIFYGRNVAV | not soluble |
| MKSMEIDVEHIFDCLDRYGKGELTEKQLTKGVTDDEKMFLIMHQGLLGGNTDSEEEFNVLDWLGEEESFFMIVEINENLCRKAESILEEIGVEMPDVIESFLKQLVETKQLPVVVND | not soluble |
| MKSNTSQQRPYQEVGAMIRDLIVQTPYRPGERLPPEREIAERLNVTRTVVREALIMLEIKGLVEVRRGAGIYVLDSADNNEMEGADVNHCNDAGPFELLQARQLLESNIAEFAALQATREDIIKMRQALQLEERELASSAPGGSESGDMQFHLAIAEATHNSMLVELFRQSWQWRENNPMWLQLHSHLGDTLYRKEWLVDHKQILAALIKKDARAAKLAMWQHLENVKQRLLEFSNVDDIYFDGYLFESWPLDNVDA | not soluble |
| MKSPAPSRPQKMALIPACIFLCFAALSVQAEETPVTPQPPDILLGPLFNDVQNAKLFPDQKTFADAVPNSDPLMILADYRMQQNQSGFDLRHFVNVNFTLPKEGEKYVPPEGQSLREHIDGLWPVLTRSTENTEKWDSLLPLPEPYVVPGGRFREVYYWDSYFTMLGLAESGHWDKVADMVANFAHEIDTYGHIPNGNRSYYLSRSQPPFFALMVELLAQHEGDAALKQYLPQMQKEYAYWMDGVENLQAGQQEKRVVKLQDGTLLNRYWDDRDTPRPESWVEDIATAKSNPNRPATEIYRDLRSAAASGWDFSSRWMDNPQQLNTLRTTSIVPVDLNSLMFKMEKILARASKAAGDNAMANQYETLANARQKGIEKYLWNDQQGWYADYDLKSHKVRNQLTAAALFPLYVNAAAKDRANKMATATKTHLLQPGGLNTTSVKSGQQWDAPNGWAPLQWVATEGLQNYGQKEVAMDISWHFLTNVQHTYDREKKLVEKYDVSTTGTGGGGGEYPLQDGFGWTNGVTLKMLDLICPKEQPCDNVPATRPTVKSATTQPSTKEAQPTPLEHHHHHH | soluble |
| MKSPIVSANLVTRDNDKIAEKTGNIYESLVVISRRARQISIKIKEELNSKLAEFASKEDNLEEIFENREQIEISKYYERMPKPSTLATEEFLEDKVMFRHTGIASATPRKEDEK | not soluble |
| MKSQPYTASSVTSTSTTHHPWMPISLREPPSKFQKLSTSDAAPLHNVCSSLKMKSTKPSRKRPSPKESDLPPLPSISTLFDSGSSSHSSSSSSNSSYGSYCQFSPEGSYTMYHWPMNYIPYVSPDVTITATTSTSTNAMASPDPIMLSSPPKQPTIEHTPINQPLFIQTADYPYDYSAPDPTGGYPSSATINANQLLLRPVPNGHV | not soluble |
| MKSRFRFHLCCVCMLALAVAGCKVKRPDDVISESKMENLLYDYHLAKSMGDNLPYNENYKKTLYLDAVFKKYGTTEAVFDSSLVWYTRNTEVLSKIYEKVSKRLKAQQNEINHLIALRDNKPKMSEPGDSIDVWPWKCFIRLTGEMMNDQYAFVLPVDTNYKDRDTLVWEVRYRFLEPMLADSLRAVTMAMQVIYEKDTLNHLETITDPGVHQIRLYADTLGVMKEIKGFIYYPGVQGEKAGALLADRFALTRYHCSDSLSVAERDSINQLEALKTDSLKKVSDQKDTKISKDSLRKVDDLKDNQRISPEEMNRRRTVTPEKKPEQIEVEQHIQQEKIEQRRERQLNQRRNQQRRQSPSR | not soluble |
| MKTENAKTNQTLVENSLNTQLSNWFLLYSKLHRFHWYVKGPHFFTLHEKFEELYDHAAETVDTIAERLLAIGGQPVATVKEYTEHASITDGGNETSASEMVQALVNDYKQISSESKFVIGLAEENQDNATADLFVGLIEEVEKQVWMLSSYLG | soluble |
| MKTFSDRWRQLDWDDIRLRINGKTAADVERALNASQLTRDDMMALLSPAASGYLEQLAQRAQRLTRQRFGNTVSFYVPLYLSNLCANDCTYCGFSMSNRIKRKTLDEADIARESAAIREMGFEHLLLVTGEHQAKVGMDYFRRHLPALREQFSSLQMEVQPLAETEYAELKQLGLDGVMVYQETYHEATYARHHLKGKKQDFFWRLETPDRLGRAGIDKIGLGALIGLSDNWRVDSYMVAEHLLWLQQHYWQSRYSVSFPRLRPCTGGIEPASIMDERQLVQTICAFRLLAPEIELSLSTRESPWFRDRVIPLAINNVSAFSKTQPGGYADNHPELEQFSPHDDRRPEAVAAALTAQGLQPVWKDWDSYLGRASQRL | not soluble |
| MKTIFSGIQPSGVITIGNYIGALRQFVELQHEYNCYFCIVDQHAITVWQDPHELRQNIRRLAALYLAVGIDPTQATLFIQSEVPAHAQAAWMLQCIVYIGELERMTQFKEKSAGKEAVSAGLLTYPPLMAADILLYNTDIVPVGEDQKQHIELTRDLAERFNKRYGELFTIPEARIPKVGARIMSLVDPTKKMSKSDPNPKAYITLLDDAKTIEKKIKSAVTDSEGTIRYDKEAKPGISNLLNIYSTLSGQSIEELERQYEGKGYGVFKADLAQVVIETLRPIQERYHHWMESEELDRVLDEGAEKANRVASEMVRKMEQAMGLGRRR | soluble |
| MKTINVFHYDAFTNKPNMGNPAGIVLDADGLTEEEMQRIAEKVGFNETSFVLSSEVADIRMRYFTPGYEMDLCGHGTVGTIYALRERGLLEEKASLTIETKAGILPIQIGVNENGETFIKMRQTAPQFKDFAGSKEELAHSIGLEVNDLDVSLPIVYGSTGNWTVIVPVKNLDVCERMKPNNEVFPSVLKEIPNASIHPICLETYDEKVHMHGRHFSSAYAGTIEDPVTGTASGVMGAYYATYVEKDFDHEMELIVEQGQEIHKDGRVTVYVTKDVESEKLQIDIAGTAVYVKEFEVLI | soluble |
| MKTLPPILSNIIEKVTNTEPANVEDKLPMNILVLGSDEKQGGRSDTIMLVHIQKDFQPIVISIPRDTRVKVEGIKGYSKINAAYAYGKSKLAVKTVEDILGIKIDKYVVVNYEAVEKIVDLVGGVDVEVPFHLYYVDTTPGKELYINIPAGLQHLDGKKAVEFLRWRHNSNGKEYGRGGDLGRIEMQRKLLYALIEKMLKPQNIVRLPLIVQTVSKYTDHNFTKNEIMWFIQNVGKFNTQNIMMTILPGYPKYIDRVSYYILNEEKCRALIDDLNEPEVLKDSMKIKILSKSFDDKATQLKNDLESKGYSNVNLGRVSKLESSEVELKRVNRKYLELLKNDIDLSTYQVVYSPDYSDKFDVYIKVKLEHHHHHH | soluble |
| MKTNVIIDGDACPVVNSVIELTKGTGIFVTILRSFSHFSQQIQPEHVKIVYVDDGPDAVDYKIVELASNNDIVITQDYGLASLLIDKVHTVMHHKGNIYHSNNIQSLLDQRYLNAQIRRRGLEHHHHHH | not soluble |
| MKTYSEARARLRWYQGRYIDFDGWYGYQCADLAVDYIYWLLEIRMWGNAKDAINNDFKNMATVYENTPSFVPQIGDVAVFTKGIYKQYGHIGLVFNGGNTNQFLILEQNYDGNANTPAKLRWDNYYGCTHFIRPKYKSEGLMNKITNKVKPPAQKAVGKSASKITVGSKAPYNLKWSKGAYFNAKIDGLGATSATRYGDNRTNYRFDVGQAVYAPGTLIYVFEIIDGWCRIYWNNHNEWIWHERLIVKEVFLEHHHHHH | not soluble |
| MKVDLNSDLGESFGRYKLGLDDEVMKYITSANVACGWHAGDPLVMRKTVRLAKKNNVQVGAHPGYPDLMGFGRRYMKLTPEEARNYILYQIGALYAFVKAEGLELQHVKPHGALYNAMVKEEDLARAVIEGILDFDKRLIVVTLAGSRVVEIAREMGARVAQEGFADRAYNPDGTLVPRSRPGAVIEDKEEIAERVISMVKDGGIRAINGEWIELEVDTICVHGDNPKAVEITAYIRRRLEEEGVKVLPMGDFIK | soluble |
| MKVERGDVIRLHYTGRVKETGQIFDTTYEEVAKEAGIYNPKGIYGPVPIIVGAGHVISGLDKRLVGLEVGKKYTLEVPPEEGFGLRDPKLIKVFTMGQFRKQGIVPFPGLEVEVTTDNGRKMKGRVITVSGGRVRVDFNHPLAGKTLIYEVEIVEKIEDPIEKIKALIELRLPMIDRDKVIIEVGEKDVKVNFGEQDVDPKTLILGEILLESDIKFLGYEKVEFKPSVEELLRPKQEEPVEEEKKEEQEESEEAQSS | soluble |
| MKVGVFTVLYQQLPLEDMLDKVAAMGIEAVELGTGNYPGNAHCDPDALLDQPEKIKALKKAVADRGLVISALSCHGNPLHPDKTFAKQSHDTWRKTVRLAEQLEVPVINAFSGCPGDHPGAKYPNWVTCSWPPDYLEILKWQWEEVVIPYWREEAAFAKEHGITQIAFEMHPGFVVYNPETLLKLREHVGEAIGANFDPSHLLWQGIDPVEAIKLLGREKAIFHVHAKDTYLDEANIRKNGVLDTKHYSQILDRSWVFRTVGYGQSEKMWRDIVSALRAVGYDYVLSIEHEDMLASIDEGLSKAVALLKKVLFKEELPEMWWA | not soluble |
| MKVISNAEFGGERPLFESHDLRLENVIIRAGESAIKECSNIEAVDCRFEGNYPFWHVHGFVIDRCFFDVGGRSALWYSDNLKMTNTRIDAPKMFREMHDIEIENVEIKDADEVFWRCKNLDIKNLKLHGGTYPFMFSSNIRIDGLESDSKYVFQYVKNVELRNAKITTKDAFWEVENVTIYDSELNGEYLGWHSHNLRLVNCHITGEQPLCYAHDLVLENCTFGPDCDRAFEYSSVQATIKGAIGGVKNPRTGCITAESYGEIILDENIKAPADCKLKLWDEKTCFTD | soluble |
